# Measured values as given in paper PMC11252911 (Proceedings of the National Academy of Sciences of the …, 2024).
# T1: HMA domain of OsHIPP43 (residues 26 to 101) (rice, UniProt Q8LJL3 26-101)
# T1 construct: also called Os01g0507700
# T1 sequence (looked up): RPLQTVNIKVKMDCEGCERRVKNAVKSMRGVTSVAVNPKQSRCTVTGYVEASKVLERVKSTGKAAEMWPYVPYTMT
# B1: Pwl1 (natural protein)
# chain: RKWTNKVIYNDKGEREGSISIRKGAEGDFNCGPGYPGGPDRMVRVHEDNGNIRGMPPGYRLGPDDKEDKRDNQYYSRNGYHVGDGPAEYQNHGGGQWGDGYYGPPGEITNQHGKRQGDQGCHIM
# How the values were obtained:
# Assay in all cases: ITC
# [1] = target: Pwl4 (Magnaporthe oryzae)
# [2] = target: Pwl2 without the signal peptide (residues 22 to 145) (Magnaporthe oryzae)
# [3] = target: T1, HMA domain of OsHIPP43 (residues 26 to …); conditions: both partners purified
molecule,measurement,setting,value
HMA domain of OsHIPP43 (residues 26 to 101) (from UniProt Q8LJL3 26-101) (domain or fragment),Kd,[1],0.124 µM
same,Kd,[2],0.191 µM
same,dH,[2],-283 kJ/mol
B1,Kd,[3],0.147 µM
